Data set [1] concerns Sso10a1 (Sulfolobus solfataricus). Nature of the data set: EMSA. The note with it: TPM buffer conditions; data not shown; EMSA: TPM buffer II (composition not in the material), 69 nM DNA, 10 min, ~23 °C, 1% agarose 0.5x TBE; TPM: 100 mM or 20 mM NaCl.
The test system of data set [2] is Sso10a2 (Sulfolobus solfataricus). Description: EMSA. The note with it: TPM buffer conditions; data not shown; EMSA: TPM buffer II (composition not in the material), 69 nM DNA, 10 min, ~23 °C, 1% agarose 0.5x TBE; TPM: 100 mM or 20 mM NaCl.

Our source for the Kd values is paper PMC4941522.

By Kd is commonly meant the equilibrium constant for the complex coming apart.

As for 685 bp DNA substrate (TPM/EMSA), the Kd in data set [1] and in data set [2] was 1 nM in each case.
